Laboratory results from patent US20190360025A1.

What was measured:
[1] = biological target: tumor necrosis factor alpha (TNF-α), R&D Systems 210-TA-005 (UniProt P01375); assay: t-PLA 10X probes, buffer; TNF-α 1.00E-08 M
[2] = biological target: tumor necrosis factor alpha (TNF-α), R&D Systems 210-TA-005 (UniProt P01375); assay: c-PLA 1X probes, buffer; TNF-α 1.00E-09 M
[3] = biological target: tumor necrosis factor alpha (TNF-α), R&D Systems 210-TA-005 (UniProt P01375); assay: c-PLA 10X probes, human plasma; TNF-α 1.00E-11 M
[4] = biological target: tumor necrosis factor alpha (TNF-α), R&D Systems 210-TA-005 (UniProt P01375); assay: t-PLA 1X probes, buffer; TNF-α 1.00E-09 M
[5] = biological target: tumor necrosis factor alpha (TNF-α), R&D Systems 210-TA-005 (UniProt P01375); assay: t-PLA 1X probes, human plasma; TNF-α 1.00E-11 M
[6] = biological target: tumor necrosis factor alpha (TNF-α), R&D Systems 210-TA-005 (UniProt P01375); assay: t-PLA 1X probes, human plasma; TNF-α 1.00E-10 M
[7] = biological target: tumor necrosis factor alpha (TNF-α), R&D Systems 210-TA-005 (UniProt P01375); assay: t-PLA, buffer; TNF-α 5.00E-07 M
[8] = biological target: tumor necrosis factor alpha (TNF-α), R&D Systems 210-TA-005 (UniProt P01375); assay: c-PLA 10X probes, human plasma; TNF-α 1.00E-12 M
[9] = biological target: tumor necrosis factor alpha (TNF-α), R&D Systems 210-TA-005 (UniProt P01375); assay: c-PLA, buffer; TNF-α 1.00E-12 M
[10] = biological target: tumor necrosis factor alpha (TNF-α), R&D Systems 210-TA-005 (UniProt P01375); assay: c-PLA 10X probes, buffer; TNF-α 1.00E-08 M
[11] = biological target: tumor necrosis factor alpha (TNF-α), R&D Systems 210-TA-005 (UniProt P01375); assay: c-PLA 10X probes, buffer; TNF-α 1.00E-10 M
[12] = biological target: tumor necrosis factor alpha (TNF-α), R&D Systems 210-TA-005 (UniProt P01375); assay: t-PLA 1X probes, buffer; TNF-α 1.00E-08 M
[13] = biological target: vascular endothelial growth factor (VEGF), R&D Systems 293-VE-010 (human) (UniProt P15692); assay: t-PLA, chicken plasma; VEGF 1.00E-10 M
[14] = biological target: vascular endothelial growth factor (VEGF), R&D Systems 293-VE-010 (human) (UniProt P15692); assay: c-PLA, chicken plasma; VEGF 1.00E-08 M
[15] = biological target: vascular endothelial growth factor (VEGF), R&D Systems 293-VE-010 (human) (UniProt P15692); assay: t-PLA, chicken plasma; VEGF 1.00E-09 M
[16] = biological target: vascular endothelial growth factor (VEGF), R&D Systems 293-VE-010 (human) (UniProt P15692); assay: t-PLA, human plasma; VEGF 1.00E-11 M
[17] = biological target: vascular endothelial growth factor (VEGF), R&D Systems 293-VE-010 (human) (UniProt P15692); assay: t-PLA, buffer; VEGF 1.00E-12 M
[18] = biological target: vascular endothelial growth factor (VEGF), R&D Systems 293-VE-010 (human) (UniProt P15692); assay: t-PLA, chicken plasma; VEGF 1.00E-14 M
[19] = biological target: vascular endothelial growth factor (VEGF), R&D Systems 293-VE-010 (human) (UniProt P15692); assay: t-PLA with preamplification; VEGF 1.00E-14 M
[20] = biological target: vascular endothelial growth factor (VEGF), R&D Systems 293-VE-010 (human) (UniProt P15692); assay: t-PLA, human plasma; VEGF 1.00E-13 M
[21] = biological target: vascular endothelial growth factor (VEGF), R&D Systems 293-VE-010 (human) (UniProt P15692); assay: t-PLA with preamplification; VEGF 1.00E-13 M
[22] = biological target: vascular endothelial growth factor (VEGF), R&D Systems 293-VE-010 (human) (UniProt P15692); assay: c-PLA, buffer; VEGF 1.00E-13 M
[23] = biological target: vascular endothelial growth factor (VEGF), R&D Systems 293-VE-010 (human) (UniProt P15692); assay: t-PLA with preamplification; VEGF 1.00E-11 M
[24] = biological target: vascular endothelial growth factor (VEGF), R&D Systems 293-VE-010 (human) (UniProt P15692); assay: c-PLA, chicken plasma; VEGF 1.00E-12 M
[25] = biological target: vascular endothelial growth factor (VEGF), R&D Systems 293-VE-010 (human) (UniProt P15692); assay: c-PLA, chicken plasma; VEGF 1.00E-11 M
[26] = biological target: vascular endothelial growth factor (VEGF), R&D Systems 293-VE-010 (human) (UniProt P15692); assay: t-PLA, buffer; VEGF 1.00E-14 M
[27] = biological target: vascular endothelial growth factor (VEGF), R&D Systems 293-VE-010 (human) (UniProt P15692); assay: t-PLA with preamplification; VEGF 1.00E-09 M
[28] = biological target: vascular endothelial growth factor (VEGF), R&D Systems 293-VE-010 (human) (UniProt P15692); assay: t-PLA, human plasma; VEGF 1.00E-08 M

UniProt P01375, sequence (P01375 77-233 limits assumed): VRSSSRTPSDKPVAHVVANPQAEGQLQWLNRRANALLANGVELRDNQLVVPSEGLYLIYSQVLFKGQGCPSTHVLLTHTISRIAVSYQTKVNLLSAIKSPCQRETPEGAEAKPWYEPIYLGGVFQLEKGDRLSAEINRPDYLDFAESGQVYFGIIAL
UniProt P15692, sequence (P15692 other isoform, or with tags, fused parts or gaps limits assumed): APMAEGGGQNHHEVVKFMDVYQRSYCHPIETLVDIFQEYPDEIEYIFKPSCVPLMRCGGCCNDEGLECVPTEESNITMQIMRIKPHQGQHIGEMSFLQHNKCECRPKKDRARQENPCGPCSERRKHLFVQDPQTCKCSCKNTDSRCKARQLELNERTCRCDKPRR

Substance “affinity-purified polyclonal anti-TNF-α antibody (R&D Systems AF-210-NA)” has a Counts [1] of 1.33e+09, an SBR [1] of 233 and a Counts [2] of 3700. The SBR [2] was 232, the Counts [3] was 2970 and the SBR [3] was 1.4. The Counts [4] was 1.98e+07, the Counts [5] was 745000 and the SBR [5] was 3.1. For the same substance, the Counts [6] was 1.56e+06, the SBR [6] was 6.6 and the Counts [7] was 1.33e+08. For the same substance, the SBR [7] was 780, the Counts [8] was 2260 and the Counts [9] was 4.62. The Counts [10] was 359000, the SBR [10] was 1960 and the Counts [11] was 4620. For the same substance, the Counts [12] was 5.4e+07 and the SBR [12] was 65.

Work on “affinity-purified polyclonal anti-VEGF antibody (R&D Systems AF-293-NA)” yielded a Counts [13] of 9.58e+07, an SBR [13] of 1430 and a Counts [14] of 40800. The SBR [14] was 4420, the Counts [15] was 2.39e+08 and the SBR [15] was 3580. The Counts [16] was 7.15e+06, the Counts [17] was 3.69e+06 and the SBR [17] was 11. The Counts [18] was 71600, the SBR [18] was 1.1 and the Counts [19] was 363000. It also gave a Counts [20] of 1.79e+06, an SBR [20] of 1.1 and a Counts [21] of 577000. The SBR [21] was 3.3, the Counts [22] was 272 and the SBR [22] was 9.1. For the same substance, the Counts [23] was 1.26e+07, the SBR [23] was 71 and the Counts [24] was 198. It also gave an SBR [24] of 22, a Counts [25] of 2160 and an SBR [25] of 234. It also gave a Counts [26] of 595000, an SBR [26] of 1.7 and a Counts [27] of 1.19e+09. For the same substance, the SBR [27] was 6740, the Counts [28] was 8.23e+07 and the SBR [28] was 51.
